We go through 5 sequences from the supplement of paper PMC5998384.

Series [1] deals with HeLa Kyoto. Briefly: melting temperature (median over replicates), in situ; higher = more thermally stable.
In series [2] the test system is HeLa Kyoto. Briefly: solubility change mitosis vs G1/S (difference of NP-40 vs SDS log2 ratios) (log2 ratio difference); higher = more soluble in mitosis.
Series [3] concerns HeLa Kyoto. Briefly: solubility in G1/S (NP-40 vs SDS abundance) (log2 ratio); higher = more soluble. The settings on record: cell cycle stage: G1/S.
The subject of series [4] is HeLa Kyoto. The series is described as follows: thermal stability score vs G1/S (z-score of summed log2 fold changes over temperatures); higher = more thermally stable than in G1/S.
The mark [5] stands for this setting: cell cycle stage: early G1 (4.5 h after nocodazole release).
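Throughout, for melting temperature (median over replicates), in situ: HeLa Kyoto cells synchronized by double thymidine or nocodazole block, proteins quantified by TMT10plex mass spectrometry, three independent biological replicates.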
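Throughout, for solubility change mitosis vs G1/S (difference of NP-40 vs SDS log2 ratios): synchronized HeLa Kyoto cells (double thymidine block for G1/S, nocodazole release for mitosis), protein amounts in NP-40 versus SDS lysates quantified by mass spectrometry, three biological replicates.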
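Throughout, for solubility in G1/S (NP-40 vs SDS abundance): HeLa Kyoto cells arrested at G1/S by double thymidine block, proteins quantified by TMT10plex mass spectrometry in mild NP-40 versus SDS extracts, three biological replicates.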
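Throughout, for thermal stability score vs G1/S (z-score of summed log2 fold changes over temperatures): synchronized HeLa Kyoto cells, proteins quantified by TMT10plex mass spectrometry, three biological replicates, mitosis taken 0.5 h after nocodazole release, G1/S directly after double thymidine block.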

As to “MDRGTLPLAVALLLASCSLSPTSLAETVHCDLQPVGPERGEVTYTTSQVSKGCVAQAPNAILEVHVLFLEFPTGPSQLELTLQASKQNGTWPREVLLVLSVNSSVFLHLQALGIPLHLAYNSSLVTFQEPPGVNTTELPSFPKTQILEWAAERGPITSAAELNDPQSILLRLGQAQGSLSFCMLEASQDMGRTLEWRPRTPALVRGCHLEGVAGHKEAHILRVLPGHSAGPRTVTVKVELSCAPGDLDAVLILQGPPYVSWLIDANHNMQIWTTGEYSFKIFPEKNIRGFKLPDTPQGLLGEARMLNASIVASFVELPLASIVSLHASSCGGRLQTSPAPIQTTPPKDTCSPELLMSLIQTKCADDAMTLVLKKELVAHLKCTITGLTFWDPSCEAEDRGDKFVLRSAYSSCGMQVSASMISNEAVVNILSSSSPQRKKVHCLNMDSLSFQLGLYLSPHFLQASNTIEPGQQSFVQVRVSPSVSEFLLQLDSCHLDLGPEGGTVELIQGRAAKGNCVSLLSPSPEGDPRFSFLLHFYTVPIPKTGTLSCTVALRPKTGSQDQEVHRTVFMRLNIISPDLSGCTSKGLVLPAVLGITFGAFLIGALLTAALWYIYSHTRSPSKREPVVAVAAPASSESSSTNHSIGSTQSTPCSTSSMA [ENG]”, the melting temperature was 56.1 °C in the series on HeLa Kyoto [1] (cell cycle stage: G1/S) and 55.6 °C with HeLa Kyoto [1] (cell cycle stage: mitosis). Also, the “solubility change mitosis (log2)” value in the series with HeLa Kyoto [2] was -0.131. Besides, the “solubility in G1/S (log2)” value with HeLa Kyoto [3] is 0.178. Moreover, the thermal stability score in the series on HeLa Kyoto [4] (setting [5]) was -1.8; in the series on HeLa Kyoto [4] (cell cycle stage: mitosis), -2.37.
For “MDRPLSSSAEAEEELEWQVASRRRKAWAKCRSSWQASETEDLSTEATTQDEEEDEEEDLPGAQLPAAGGRGNVPNEKIAIWLKDCRTPLGASLDEQSSSTLKGVLVRNGGSFEDDLSLGAEANHLHESDAQIENCNNILAKERRLQFHQKGRSMNSTGSGKSSGTVSSVSELLELYEEDPEEILYNLGFGRDEPDIASKIPSRFFNSSSFAKGIDIKVFLSAQMQRMEVENPNYALTSRFRQIEVLTTVANAFSSLYSQVSGTPLQRIGSMSSVTSNKETDPPPPLTRSNTANRLMKTLSKLNLCVDKTEKGESSSPSPSAEKGKILNVSVIEESGNKNDQKSQKIMKKKESSSMLATVKEEVSGSSAAVTENADSDRISDEANSNFNQGTENEQSKETQSHESKLGEESGIVESKLDSDFNISSHSELENSSELKSVHISTPEKEPCAPLTIPSIRNIMTQQKDSFEMEEVQSTEGEAPHVPATYQLGLTKSKRDHLLRTASQHSDSSGFAEDSTDCLSLNHLQVQESLQAMGSSADSCDSETTVTSLGEDLATPTAQDQPYFNESEEESLVPLQKGLEKAAAVADKRKSGSQDFPQCNTIENTGTKQSTCSPGDHIIEITEVEEDLFPAETVELLREASAESDVGKSSESEFTQYTTHHILKSLASIEAKCSDMSSENTTGPPSSMDRVNTALQRAQMKVCSLSNQRMGRSLLKSKDLLKQRYLFAKAGYPLRRSQSLPTTLLSPVRVVSSVNVRLSPGKETRCSPPSFTYKYTPEEEQELEKRVMEHDGQSLVKSTIFISPSSVKKEEAPQSEAPRVEECHHGRTPTCSRLAPPPMSQSTCSLHSIHSEWQERPLCEHTRTLSTHSVPNISGATCSAFASPFGCPYSHRHATYPYRVCSVNPPSAIEMQLRRVLHDIRNSLQNLSQYPMMRGPDPAAAPYSTQKSSVLPLYENTFQELQVMRRSLNLFRTQMMDLELAMLRQQTMVYHHMTEEERFEVDQLQGLRNSVRMELQDLELQLEERLLGLEEQLRAVRMPSPFRSSALMGMCGSRSADNLSCPSPLNVMEPVTELMQEQSYLKSELGLGLGEMGFEIPPGESSESVFSQATSESSSVCSGPSHANRRTGVPSTASVGKSKTPLVARKKVFRASVALTPTAPSRTGSVQTPPDLESSEEVDAAEGAPEVVGPKSEVEEGHGKLPSMPAAEEMHKNVEQDELQQVIREIKESIVGEIRREIVSGLLAAVSSSKASNSKQDYH [SSFA2]”, the melting temperature with HeLa Kyoto [1] (cell cycle stage: G1/S) worked out at 50.8 °C; in the series with HeLa Kyoto [1] (cell cycle stage: mitosis), 49.8 °C. Moreover, the “solubility change mitosis (log2)” value in the series with HeLa Kyoto [2] stood at 0.802. For the same sequence, the “solubility in G1/S (log2)” value in the series on HeLa Kyoto [3] was -0.81. The thermal stability score in the series on HeLa Kyoto [4] (setting [5]) is -1.42; with HeLa Kyoto [4] (cell cycle stage: mitosis), -0.947.
Regarding “MDRSKENCISGPVKATAPVGGPKRVLVTQQFPCQNPLPVNSGQAQRVLCPSNSSQRIPLQAQKLVSSHKPVQNQKQKQLQATSVPHPVSRPLNNTQKSKQPLPSAPENNPEEELASKQKNEESKKRQWALEDFEIGRPLGKGKFGNVYLAREKQSKFILALKVLFKAQLEKAGVEHQLRREVEIQSHLRHPNILRLYGYFHDATRVYLILEYAPLGTVYRELQKLSKFDEQRTATYITELANALSYCHSKRVIHRDIKPENLLLGSAGELKIADFGWSVHAPSSRRTTLCGTLDYLPPEMIEGRMHDEKVDLWSLGVLCYEFLVGKPPFEANTYQETYKRISRVEFTFPDFVTEGARDLISRLLKHNPSQRPMLREVLEHPWITANSSKPSNCQNKESASKQS [AURKA]”, the melting temperature in the series on HeLa Kyoto [1] (cell cycle stage: G1/S) was 50 °C; in the series on HeLa Kyoto [1] (cell cycle stage: mitosis), 50.8 °C. Also, in the series on HeLa Kyoto [2], the “solubility change mitosis (log2)” value was -0.0266. Moreover, the “solubility in G1/S (log2)” value in the series with HeLa Kyoto [3] is -0.00432. The thermal stability score in the series on HeLa Kyoto [4] (setting [5]) is -0.0408; in the series on HeLa Kyoto [4] (cell cycle stage: mitosis), -0.506.
Consider “MDRTCEERPAEDGSDEEDPDSMEAPTRIRDTPEDIVLEAPASGLAFHPARDLLAAGDVDGDVFVFSYSCQEGETKELWSSGHHLKACRAVAFSEDGQKLITVSKDKAIHVLDVEQGQLERRVSKAHGAPINSLLLVDENVLATGDDTGGICLWDQRKEGPLMDMRQHEEYIADMALDPAKKLLLTASGDGCLGIFNIKRRRFELLSEPQSGDLTSVTLMKWGKKVACGSSEGTIYLFNWNGFGATSDRFALRAESIDCMVPVTESLLCTGSTDGVIRAVNILPNRVVGSVGQHTGEPVEELALSHCGRFLASSGHDQRLKFWDMAQLRAVVVDDYRRRKKKGGPLRALSSKTWSTDDFFAGLREEGEDSMAQEEKEETGDDSD [WDR55]”, for which the melting temperature with HeLa Kyoto [1] (cell cycle stage: G1/S) worked out at 51.3 °C; in the series on HeLa Kyoto [1] (cell cycle stage: mitosis) it was 51.4 °C. For the same sequence, in the series with HeLa Kyoto [2], the “solubility change mitosis (log2)” value is -0.0465. In addition, the “solubility in G1/S (log2)” value in the series on HeLa Kyoto [3] is -0.0916. The thermal stability score was -0.454 in the series with HeLa Kyoto [4] (setting [5]) and -1.73 in the series with HeLa Kyoto [4] (cell cycle stage: mitosis).
“MDSAGQDINLNSPNKGLLSDSMTDVPVDTGVAARTPAVEGLTEAEEEELRAELTKVEEEIVTLRQVLAAKERHCGELKRRLGLSTLGELKQNLSRSWHDVQVSSAYVKTSEKLGEWNEKVTQSDLYKKTQETLSQAGQKTSAALSTVGSAISRKLGDMRNSATFKSFEDRVGTIKSKVVGDRENGSDNLPSSAGSGDKPLSDPAPF [TPD52L2]”: the melting temperature in the series with HeLa Kyoto [1] (cell cycle stage: G1/S) came to 53 °C; in the series with HeLa Kyoto [1] (cell cycle stage: mitosis), 52.7 °C. The “solubility change mitosis (log2)” value in the series with HeLa Kyoto [2] came to 0.6. Also, the “solubility in G1/S (log2)” value in the series on HeLa Kyoto [3] worked out at 0.127. The thermal stability score in the series with HeLa Kyoto [4] (setting [5]) is -4.67; in the series with HeLa Kyoto [4] (cell cycle stage: mitosis), -5.07.
